Biological target: purified 3xFlag-tagged B56γ (Xenopus laevis)
Test: pull-down (amylose beads) with immunoblot quantification
Details: chain shown with the change, purified Flag-B56γ, 23°C, 30 min, read off a plot

purified 3xFlag-tagged B56γ (Xenopus laevis), sequence (chain, as listed by the source): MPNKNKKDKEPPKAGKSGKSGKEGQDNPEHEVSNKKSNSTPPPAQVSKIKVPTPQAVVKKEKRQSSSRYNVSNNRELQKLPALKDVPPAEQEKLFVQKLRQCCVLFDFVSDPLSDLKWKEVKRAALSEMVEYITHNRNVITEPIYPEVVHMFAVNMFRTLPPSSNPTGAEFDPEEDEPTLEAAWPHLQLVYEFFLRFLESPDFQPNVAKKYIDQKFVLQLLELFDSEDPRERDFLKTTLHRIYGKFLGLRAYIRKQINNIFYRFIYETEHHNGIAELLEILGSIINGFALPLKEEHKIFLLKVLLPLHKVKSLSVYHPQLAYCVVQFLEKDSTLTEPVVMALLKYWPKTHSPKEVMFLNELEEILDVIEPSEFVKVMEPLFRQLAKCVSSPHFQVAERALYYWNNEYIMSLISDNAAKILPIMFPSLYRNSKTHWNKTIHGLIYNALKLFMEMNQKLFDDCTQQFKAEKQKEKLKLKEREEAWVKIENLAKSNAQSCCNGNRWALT

B1: MBP-fused Apc1-loop^500 wild type (residues 515-584 of Xenopus tropicalis Apc1), Q08D52 T532A; T539A; S558A (protein)
chain: GLAAPSLGMSNPMPRPSAPLESISAPAKPLNKHLAPMDEAGMLAPVPELRDSTRLHESTYLDDCTFHQFG
response (pre-incubated with Cdk2-cyclin A at 30°C for 60 min (+Cdk), parent: est. 5.3): 1.2 A.U. | response (without Cdk2-cyclin A pre-incubation, parent: 1.0): 1 A.U.

Source: PMC6945068
